pKd: −log10 of the molar value.
Target: EGFR-His (human ECD) (human)
Assay: BLI

How did the pKd turn out when Cetuximab Fab-His was run?
Its pKd is 8.77.

Source: patent publication US20260297200
